In patent publication US20070105771A1:

Assays:
Assay in all cases: peptide microarray
[1] = target: T1, human CD26-derived 13 mer peptide 121 (human)
T1 sequence (peptide): TAPASMLIGDHYL

[2] = target: T2, human CD26-derived 13 mer peptide 31 (human)
T2 sequence (peptide): SPDGQFILLEYNY

[3] = target: T3, human CD26-derived 13 mer peptide 91 (human)
T3 sequence (peptide): FNDTEVPLIEYSF

[4] = target: T4, human CD26-derived 13 mer peptide 125 (human)
T4 sequence (peptide): GDHYLCDVTWATQ

[5] = target: T5, human CD26-derived 13 mer peptide 29 (human)
T5 sequence (peptide): DYSISPDGQFILL

[6] = target: T6, human CD26-derived 13 mer peptide 16 (human)
T6 sequence (peptide): VFNAEYGNSSVFL

[7] = target: T7, human CD26-derived 13 mer peptide 69 (human)
T7 sequence (peptide): RITWTGKEDIIYN

[8] = target: T8, human CD26-derived 13 mer peptide 13 (human)
T8 sequence (peptide): QENNILVFNAEYG

Mean Signal Value [1]: 2.08 | Mean Signal Value [2]: 2.33 | Mean Signal Value [3]: 2.3 | Mean Signal Value [4]: 1.8 | Mean Signal Value [5]: 2.16 | Mean Signal Value [6]: 1.92 | Mean Signal Value [7]: 2.45 | Mean Signal Value [8]: 1.94
B1: rhuMAb 411 (antibody, human IgG1, kappa, V domains shown)
VH: EVQLVESGAGVKQPGGTLRLTCTASGFSLTTYGVHWVRQAPGKGLEWVGVIWGDGRTDYDAAFMSRVTISKDTSKSTVYLQMNSLRAEDTAVYYCMRNRHDWFDYWGQGTTVTVSS
VL: DILLTQSPSSLSATPGERATITCRASQGIRNNLNWYQQKPGQAPRLLIYYSSNLQSGVPSRFSGSGSGTDFTLTISRLQPEDVAAYYCQQSIKLPFTFGSGTKVEIKR
